Assay results reported in patent US20110218114A1, “NUCLEOTIDE TRIPHOSPHATE WITH AN ELECTROACTIVE LABEL CONJUGATED TO THE GAMMA PHOSPHATE” (priority 2007, published 2011).

How the values were obtained:
Format in all cases: biochemical
[1] = biological target: T1, Abl1-T315I (Homo sapiens, UniProt P00519, T315I); assay: Electrochemical (CV) Fc-ATP phosphorylation assay, substrate peptide immobilized on gold microelectrode, Abl1-T315I; conditions: for phosphorylation of immobilized peptide by Abl1-T315I (anodic current response): control peptides, HeLa cell lysate, FIG. 12C
T1 construct: purchased Cell Signalling Technology (MA, USA)
Procedure: (§1) The covalent immobilization of substrate peptides on the gold microelectrode surface using succinimide-esters of lipoic acid included the following steps: (a) incubation of the bare gold microelectrode with 5 mM NHS-lipoic acid ester in ethanol for 15 h; (b) incubation of the N-Hydroxysuccinimide (NHS)-lipoic acid-modified surface with the substrate peptides in the presence of 2 mM N-(3-Dimethylaminopropyl)-N′-ethylcarbodiimide (EDC) in 0.1 M 2-(N-Morpholino) ethanesulfonic acid (MES, pH 6) for 2 h, (c) incubation of the peptide-modified electrodes with Mercaptopolyethylene glycol 5′000 monomethyl ether (PEG-thiol 5′000) solution (1:100 v/v) in ethanol for 10 min.
Abl1-T315I kinase assay buffer included 60 mM HEPES (pH 7.5), 5 mM MgCl2, 5 mM MnCl2, 3 μM Na3VO4, 400 μM ATP, peptide substrate (STP) and the kinase in a total reaction volume of 25 μL. Purified recombinant human Abl1-T315I mutant kinase and its substrate peptide Signal Transduction Protein (STP, EGIYDVP) were purchased from Cell Signalling Technology (MA, USA). The substrate peptide modified electrodes were incubated at 37° C. for 2 h. After following the same washing procedures as for CK2, the CV measurements were recorded using the same parameters as described above.
(§2) The electrochemical data from the CV measurements are obtained as charge density (J) per test. […] Here, the detailed description of the calculation procedure will be given for CK2-catalysed phosphorylation reactions. The reaction volume is 25 μL, which leads to 2.5 nmole Fc-ATP per test. Then, the specific electro-activity (SE) of Fc-ATP (J/nmole Fc-ATP) would be calculated as follows: […]
(§3) where V is the rate, V0 is the rate in the absence of the inhibitor, [I] is the inhibitor concentration and Ki′ is the apparent inhibition constant.
(§4) where [S] is the surface density of the immobilized substrate peptide and Km is the Michaelis-Menten constant. The surface density conditions of the immobilized substrate peptide were changed between 1, 5, 10, 15 and 20 pmol/cm2. The initial time dependence of the kinase reactions were determined at these varying peptide density conditions. The phosphorylation reaction was stopped after 5, 15, 30, 60, 90, 120 and 150 min, and the measurement of the attached Fc molecules was carried out. […] If the y is set for 0 and the equation is solved for x, x intercept becomes equal to −1/Km.

[2] = biological target: CK2α (Homo sapiens, UniProt P68400); assay: Electrochemical (CV) Fc-ATP phosphorylation assay, substrate peptide immobilized on gold microelectrode, CK2α
Procedure: as §1
(§5) The substrate peptide modified electrodes were incubated at 37° C. for 2 h.
as §2, §3, §4

[3] = biological target: CK2α′ (Homo sapiens, UniProt P19784); assay: Electrochemical (CV) Fc-ATP phosphorylation assay, substrate peptide immobilized on gold microelectrode, CK2α′
Procedure: as §1, §5
(§6) The electrochemical data from the CV measurements are obtained as charge density (J) per test. The concentration of Fc-ATP for the kinase activity determinations was 100 μM, for CK2 and 200 μM for Abl1-T315I and HER2-ErbB2. Here, the detailed description of the calculation procedure will be given for CK2-catalysed phosphorylation reactions. The reaction volume is 25 μL, which leads to 2.5 nmole Fc-ATP per test. Then, the specific electro-activity (SE) of Fc-ATP (J/nmole Fc-ATP) would be calculated as follows: […]
(§7) The apparent inhibition constants Ki′ were determined by fitting equation (3) to the experimental data.
(§8) where V is the rate, V0 is the rate in the absence of the inhibitor, [I] is the inhibitor concentration and Ki′ is the apparent inhibition constant. The true inhibition constants Ki were calculated by correction of Ki′ according to Equation (4): […]
as §4

[4] = biological target: T2, HER2/ErbB2 (Homo sapiens, UniProt P04626); assay: Electrochemical (CV) Fc-ATP phosphorylation assay, substrate peptide immobilized on gold microelectrode, HER2/ErbB2; conditions: for phosphorylation of immobilized peptide by HER2/ErbB2 (anodic current response): control peptides, FIG. 13C
T2 construct: purchased Cell Signalling Technology (MA, USA)
Procedure: as §1, §6, §7, §8, §4

[5] = CK2α′, immobilized substrate peptide, Lineweaver-Burk
[6] = HER2/ErbB2, immobilized substrate peptide, Lineweaver-Burk
[7] = Abl1-T315I, immobilized substrate peptide, Lineweaver-Burk

Sequence of CK2α′ (P19784 whole entry): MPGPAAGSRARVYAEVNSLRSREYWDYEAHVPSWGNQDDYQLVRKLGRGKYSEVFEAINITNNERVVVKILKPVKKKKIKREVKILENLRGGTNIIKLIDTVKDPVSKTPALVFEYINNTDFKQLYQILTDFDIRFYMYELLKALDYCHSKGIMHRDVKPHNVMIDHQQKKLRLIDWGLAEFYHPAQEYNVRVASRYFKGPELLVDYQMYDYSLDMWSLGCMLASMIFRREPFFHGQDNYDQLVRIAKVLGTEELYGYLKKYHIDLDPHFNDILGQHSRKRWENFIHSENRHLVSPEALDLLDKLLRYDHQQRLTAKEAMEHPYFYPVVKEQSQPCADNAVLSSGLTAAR
Sequence of CK2α (P68400 whole entry): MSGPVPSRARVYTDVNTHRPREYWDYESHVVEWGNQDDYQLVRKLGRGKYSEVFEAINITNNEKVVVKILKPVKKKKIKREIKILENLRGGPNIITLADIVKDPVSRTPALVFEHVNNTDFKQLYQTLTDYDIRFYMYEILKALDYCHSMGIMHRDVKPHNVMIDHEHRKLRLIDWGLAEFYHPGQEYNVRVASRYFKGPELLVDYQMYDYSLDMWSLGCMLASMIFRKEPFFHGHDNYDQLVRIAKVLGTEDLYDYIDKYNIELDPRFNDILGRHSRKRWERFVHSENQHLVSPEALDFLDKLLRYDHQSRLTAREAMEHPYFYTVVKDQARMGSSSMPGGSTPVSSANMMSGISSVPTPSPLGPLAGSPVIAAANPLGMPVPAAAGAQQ

Compound: Brc1c(Br)c(Br)c2[nH]nnc2c1Br [(1), 4,5,6,7-Tetrabromo-2-azabenzimidazole]
- inhibition of EGIYDVP phosphorylation (specificity control) ([1]; EGIYDVP peptide exposed to inhibitor, FIG. 11C-b): not inhibited

Compound: RRRDDDSDDD [CK2 peptide substrate]
- phosphorylation of immobilized peptide by Abl1-T315I (anodic current response) [1]: did not catalyze phosphorylation
- phosphorylation of immobilized peptide by Abl1-T315I (anodic current response) ([1]; listed as CK2 substrate peptide): No significant current responses
- Vmax/Kmax [2]: 22.64
- Km ([2]; Lineweaver-Burk): 87 µM
- Vmax ([2]; Lineweaver-Burk): 1.97 µmol/min/mg
- Vmax/Kmax ([3]; CK2α′, immobilized substrate peptide): 18.16
- Km [3, 5]: 98 µM
- Vmax [3, 5]: 1.78 µmol/min/mg
- phosphorylation of immobilized peptide by HER2/ErbB2 (anodic current response) [4]: did not catalyze phosphorylation

Compound: DNEYFYV [FLT3 substrate peptide for HER2/ErbB2]
- phosphorylation of immobilized peptide by Abl1-T315I (anodic current response) [1]: Low current responses
- Vmax/Kmax ([4]; HER2/ErbB2, immobilized substrate peptide): 7.41
- Km [4, 6]: 208 µM
- Vmax [4, 6]: 1.54 µmol/min/mg

Compound: EGIYDVP [Abl1-T315I substrate peptide Signal Transduction Protein]
- Vmax/Kmax ([1]; Abl1-T315I, immobilized substrate peptide): 9.18
- Km [1, 7]: 182 µM
- Vmax [1, 7]: 1.67 µmol/min/mg
- phosphorylation of immobilized peptide by CK2 (current response) ([3]; control peptide in presence of cell lysate, FIG. 10B-c): did not catalyze phosphorylation
- phosphorylation of immobilized peptide by HER2/ErbB2 (anodic current response) [4]: slight increase in the current responses
